Data: the supplement of paper PMC11780869

Test system: Bacillus subtilis
Experiment: cleaved RNA product abundance (RNA/gDNA barcode ratio) relative to median wild-type variant (ratio to wild type); higher = more accumulation of the downstream cleavage product
Procedure, shortened: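 Truncated aprE or tetM reporter mRNAs with barcoded RNase Y cleavage-site windows, mutagenized from oligos at a 9% error rate, sat in the B. subtilis chromosome. Cells grew in LB at 37°C from OD600 0.0003 to 0.3. Gel-selected cleaved RNA was reverse transcribed and its barcodes sequenced with those from genomic DNA, collapsing by UMI. Cleaved product abundance equals the RNA:gDNA barcode ratio per construct over the median construct with the unmutated site.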

[1] = experiment (reporter, strain, medium): exp 4a: truncated aprE reporter, strain BJT201 with 2% xylose (RNase J1 expressed), cleavage site: cggR-gapA (positions -7 to +36 mutated)
[2] = experiment (reporter, strain, medium): exp 2b: truncated aprE reporter, strain BJT200, cleavage site: cggR-gapA (positions -7 to +36 mutated)
[3] = experiment (reporter, strain, medium): exp 8a: truncated aprE reporter, strain BJT201 with 2% xylose (RNase J1 expressed), cleavage site: glnRA (positions -5 to +31 mutated)
[4] = experiment (reporter, strain, medium): exp 6: tetM reporter, strain 168, cleavage site: cggR-gapA (positions -7 to +36 mutated)

Sequence | cleaved RNA product abundance [1] | cleaved RNA product abundance [2] | cleaved RNA product abundance [3] | also measured
ACAGACGAAGGAGCCGCCAAGATGTTATTAAGGGATGAATAATCCCTCAATATAAATATCTCTCACTTATTTAAA | 0.894 |  |  | 
ACAGACGAAGGAGCCGCAATGAAGTTATTAAGGGATGAATAATCCCTCAATATTAATATCTCTCACTTATTTAAA |  | 0.226 |  | 
CGACATGTCCCGCTTCTTTCATTAATCCGTTATCAACTGTTTTGCTATATACAGTTACCTTTTAAGAGGAGGAAT |  |  | 0.286 | 
CGACATGTCCCGCTTCTTTCATTAATCTGTTAGCAACAGTTTTGCTATATACATTTACCTTTTAAGAGGAGGAAT |  |  | 0.686 | 
ACAGACGAAGGAGCCGCAAAGAAGTTATTAAGGGATGAATAATCCCTCTATATAAATCTCTCTCACTTATTTAAA | 0.529 |  |  | 
CGACATGTCCCGCTTCTTTCATTACTCCGTTAGCAACTGTTTTGCTATATACATTAACCTTTTAAGAGGAGGAAT |  |  | 1.36 | 
CGACATGTCCCGCTTCTTTCATTAATCCGATAGCAACTGTTTTCCTATATAAGCTTACCTTTTAAGAGGAGGAAT |  |  | 0.295 | 
ACAGACGAAGGAGCCGCAAAGAAGTTATTAAGAGATGAATAATCCCTCAATATAAATACCTCTCACTTATTTAAA | 0.126 |  |  | 
ACAGACGAAGGAGCCGCAAACAAGTTATTAAGGGATAAATAATCCCTCAATATAAATATCTCTCACTTATTTAAA | 0.649 |  |  | 
ACAGACGAAGGAGCCGCAAAGAAGTGATTAAGGGATTAATAATCCCTCAATATAAATATCTCTCACTTATTTAAA | 0.325 | 0.459 |  | 
ACAGACGAAGGAGCCGCAAAGAAGTTAATAAGGGATGAATAATCCCACAATATAAATATCTCTCACTTATTTAAA | 0.253 | 0.17 |  | 
ACAGACGAAGGAGCCGCAAAGAAATTATTAAGGGATGAATTATCCCTCAATATAAATATCTCTCACTTATTTAAA | 0.711 | 0.539 |  | 
ACAGACGAAGGAGCCGCAAAGAAGTTATTAAGGGATGAATATTCCCACAATATAAATATCTCTCACTTATTTAAA | 0.178 | 0.177 |  | 
ACAGACGAAGGAGCCGCAAAGAAGTTCTTAAGGGATGAATTATCCCTCAATATAAATATCTCTCACTTATTTAAA | 0.126 |  |  | 
CGACATGTCCCGCTTCTTTCATTAATTCGTTAGCAACTGTTTTGCTAAATACATTTACCTTTTAAGAGGAGGAAT |  |  | 0.362 | 
CGACATGTCCCGCTTCTTTCATTAATCCGTTATTAACTGTTTTGCTATATACATTTACCTTTTAAGAGGAGGAAT |  |  | 0.337 | 
CGACATGTCCCGCTTCTTTCATTAATCCGTTAGCAACTGTTATTCTATATACATTTACCTTTTAAGAGGAGGAAT |  |  | 0.506 | 
CGACATGTCCCGCTTCTTTCATTAATCCGTTAGGAACTGTCTTGCTATATACATTTACCTTTTAAGAGGAGGAAT |  |  | 0.138 | 
ACAGACGAAGGAGCCGCATAGAAGTTATTAAGGGATGAATAATACCTCAATATAAATATCTCTCACTTATTTAAA | 0.179 | 0.115 |  | 
ACAGACGAAGGAGCCGCAAAGAAGTTTTTAAGGGATGAATAATTCCTCAATATAAATATCTCTCACTTATTTAAA | 0.195 | 0.177 |  | 

Sequence | cleaved RNA product abundance [1] | cleaved RNA product abundance [2] | cleaved RNA product abundance [3] | also measured
CGACATGTCCCGCTTCTTTCATTAATCCTTTAGAAACTGTTTTGCTATATACATTTACCTTTTAAGAGGAGGAAT |  |  | 0.18 | 
ACAGACGAAGGAGCCGCAAAGAAGTTATTAAGGAATGATTAATCCCTCAATATAAATATCTCTCACTTATTTAAA | 0.11 | 0.115 |  | 
ACAGACGAAGGAGCCGCAAAGATGTTATTAAGGGATGAATAATCCCTCAATCTAAATATCTCTCACTTATTTAAA | 0.0528 |  |  | 
ACAGACGAAGGAGCCGCAAAGAAGTTATTAAGGGATGAATAATCCCTCAATATATAGATCTCTCACTTATTTAAA | 0.77 |  |  | 
CGACATGTCCCGCTTCTTTCATTAATCCGTTAGGAACTGTTTTGCGATATACATTTACCTTTTAAGAGGAGGAAT |  |  | 0.312 | 
ACAGACGAAGGAGCCGCAAAGAAGTTATTAAGGGATTAATAATCCCTCAATTTAAATATCTCTCACTTATTTAAA | 0.176 |  |  | 
CGACATGTCCCGCTTCTTTCATTAAACCGTTAGCAACTGTTTTGCTATATAAATTTACCTTTTAAGAGGAGGAAT |  |  | 1.02 | 
ACAGACGAAGGAGCCGCAAAGAAGTTATTAAGGGATGAATAATCCCTCCATATAAATATCTCTCACTTATTTAAA | 0.341 | 0.243 |  | cleaved RNA product abundance [4]: 0.34
CGACATGTCCCGCTTCTTTCATTAATCAATTAGCAACTGTTTTGCTATATACATTTACCTTTTAAGAGGAGGAAT |  |  | 0.946 | 
ACAGACGAAGGAGCCGCAAAGAAGTTTTTATGGGATGAATAATCCCTCAATATAAATATCTCTCACTTATTTAAA | 0.323 |  |  | 
ACAGACGAAGGAGCCGCAAATAAGTTATTAAGGGATGAATAATCTCTCAATATAAATATCTCTCACTTATTTAAA | 0.758 | 0.613 |  | 
CGACATGTCCCGCTTCTTTCATTAATCCGTTAGCAACTTTTTTGCTATATACATTTACCGTTTAAGAGGAGGAAT |  |  | 1.51 | 
ACAGACGAAGGAGCCGCAAAGAAGTTATGAAGTGATGAATAATCCCTCAATATAAATATCTCTCACTTATTTAAA | 0.0812 | 0.0796 |  | 
ACAGACGAAGGAGCCGCAAAGAAGTTGTTAAGGGCTGAATAATCCCTCAATATAAATATCTCTCACTTATTTAAA | 0.198 |  |  | 
ACAGACGAAGGAGCCGCAAAGAAGTTATTAAGGGATTAATAATCCCTTAATATAAATATCTCTCACTTATTTAAA | 0.563 |  |  | 
ACAGACGAAGGAGCCGCAAAGAAGTTATTAAGGGATGAATAATCCATCAATATAAATATCTCTCACTTATTTAAA | 0.23 | 0.184 |  | cleaved RNA product abundance [4]: 0.201
ACAGACGAAGGAGCCGCAAAGAAGTTATTAAGGGATGATTAATCCCTAAATATAAATATCTCTCACTTATTTAAA | 0.599 |  |  | 
ACAGACGAAGGAGCCGCCAATAAGTTATTAAGGGATGAATAATCCCTCAATATAAATATCTCTCACTTATTTAAA | 0.812 |  |  | 
CGACATGTCCCGCTTCTTTCATTAATCCATTAGCAACTGTTTGGCTATATACATTTACCTTTTAAGAGGAGGAAT |  |  | 0.386 | 
ACAGACGAAGGAGCCGCAAAGAAATTATTAAGGGATGAATAATCCCACAATATAAATATCTCTCACTTATTTAAA | 0.298 | 0.195 |  | 

Sequence | cleaved RNA product abundance [1] | cleaved RNA product abundance [2] | cleaved RNA product abundance [3] | also measured
ACAGACGAAGGAGCCGCAAAGAAGTAATTAAGGGATGAATAACCCCTCAATATAAATATCTCTCACTTATTTAAA | 0.158 |  |  | 
CGACATGTCCCGCTTCTTTCATTAATCCGTTAACAACTGTCTTGCTATATACATTTACCTTTTAAGAGGAGGAAT |  |  | 0.0713 | 
CGACATGTCCCGCTTCTTTCATTAATCCTTTAGCAACTCTTTTGCTATATACATTTACCTTTTAAGAGGAGGAAT |  |  | 1.2 | 
ACAGACGAAGGAGCCGCAAAGAAGTTAATAAGGGACGAATAATCCCTCAATATAAATATCTCTCACTTATTTAAA | 0.164 | 0.154 |  | 
ACAGACGAAGGAGCCGCAAAGAAGATATTAAGGTATGAATAATCCCTCAATATAAATATCTCTCACTTATTTAAA | 0.117 | 0.104 |  | 
ACAGACGAAGGAGCCGCAAAGAAGTTATTAAGGCATGAATAATCCCTTAATATAAATATCTCTCACTTATTTAAA | 0.291 | 0.411 |  | 
ACAGACGAAGGAGCCGCAATGAAGTTATTAAGGGTTGAATAATCCCTCAATATAAATATCTCTCACTTATTTAAA |  | 0.325 |  | 
ACAGACGAAGGAGCCGCAAAGAAGTTATTAAGGAATGAAGAATCCCTCAATATAAATATCTCTCACTTATTTAAA | 0.17 | 0.0952 |  | 
ACAGACGAAGGAGCCGCAAAGAAGTTAATAAGGGATGAATAATCCCTCAATACAAATATCTCTCACTTATTTAAA |  | 0.0847 |  | 
CGACATGTCCCGCTTCTTTCATTAATCCGTTACCAACTGTTTTTCTATATACATTTACCTTTTAAGAGGAGGAAT |  |  | 0.234 | 
CGACATGTCCCGCTTCTTTCATTAATCCGTTAGCAACTGTATTGCTATATAAATTTACCTTTTAAGAGGAGGAAT |  |  | 0.849 | 
ACAGACGAAGGAGCCGCAAAGAAGTTATTAAGGGATGAAAAATCCCTCAATATAAATAACTCTCACTTATTTAAA | 0.632 |  |  | 
ACAGACGAAGGAGCCGCAAAGCATTTATTAAGGGATGAATAATCCCTCAATATAAATATCTCTCACTTATTTAAA | 0.256 |  |  | 
ACAGACGAAGGAGCCGCAAAGAAGGAATTAAGGGATGAATAATCCCTCAATATAAATATCTCTCACTTATTTAAA | 0.353 |  |  | 
ACAGACGAAGGAGCCGCAAAAAAGTTATTAAGGGATGAATAAGCCCTCAATATAAATATCTCTCACTTATTTAAA | 0.793 | 0.639 |  | 
ACAGACGAAGGAGCCGCAAAGAAGTTATTAAGGTATCAATAATCCCTCAATATAAATATCTCTCACTTATTTAAA | 0.125 | 0.106 |  | 
CGACATGTCCCGCTTCTTTCATTATTCCGTTAGCAACTGTTTTGCTATATACATTTCCCTTTTAAGAGGAGGAAT |  |  | 1.01 | 
ACAGACGAAGGAGCCGCAAAGAAGTTAGTAAGGGATGAATAATCCTTCAATATAAATATCTCTCACTTATTTAAA |  | 0.29 |  | 
CGACATGTCCCGCTTCTTTCATTATTCCGTTAGCATCTGTTTTGCTATATACATTTACCTTTTAAGAGGAGGAAT |  |  | 1.34 | 
ACAGACGAAGGAGCCGCAAAGAAGTTATGAAAGGATGAATAATCCCTCAATATAAATATCTCTCACTTATTTAAA | 0.178 |  |  | 
